Test [1] deals with T1, human CD40 on the cell surface (human, UniProt P25942 21-277).
T1 construct: whole, on cells; also called cell surface CD40; Jurkat-CD40
Description: FACS, human dendritic cells, MFI.

Test [2] has as its target T1, human CD40 on the cell surface. Briefly: FACS, Jurkat cells overexpressing human CD40, PE anti-human IgG, MFI. The procedure:
To evaluate the binding affinity of 5T4-CD40 bispecific antibodies to cell surface CD40, bispecific antibodies with formats of b 1 (42p155z2), b12 (42p155z2), b13 (42p155z2), b16 (42p155z2), b17 (42p155z2) and b18 (2p1130) were tested in Jurkat cell lines that overexpressed CD40 by FACS. A total number of 1×10⁵ Jurkat-CD40 cells in each well were incubated with 5-fold serially diluted antibodies starting from 100 nM for 30 minutes at 4° C. in FACS buffer. After wash by FACS buffer, PE conjugated-anti-human IgG antibody was added to each well and incubated at 4° C. for 30 minutes. After wash, MFI of PE was evaluated by MACSQuant Analyzer 16.

T1 sequence (P25942 21-277): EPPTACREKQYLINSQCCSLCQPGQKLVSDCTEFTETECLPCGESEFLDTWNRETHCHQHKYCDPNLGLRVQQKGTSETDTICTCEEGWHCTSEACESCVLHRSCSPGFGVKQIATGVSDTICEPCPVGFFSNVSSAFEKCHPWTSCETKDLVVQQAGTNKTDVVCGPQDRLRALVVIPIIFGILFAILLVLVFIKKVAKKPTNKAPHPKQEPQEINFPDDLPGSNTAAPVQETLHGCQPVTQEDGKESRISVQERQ

B1: b16 (42p155z2) anti-5T4/CD40 bispecific antibody (bispecific antibody, human IgG1, kappa, N297A)
heavy 1: EVQLQQSGPELVKPGASVKISCKASGYAFSSSWMNWVKQRPGKGLEWIGRIYREDGHTNYNGKFKGKATLTADKSSTTAYMQLTSLTSEDSAVYFCANGGAMDYWGQGTSVTVSSASTKGPSVFPLAPSSKSTSGGTAALGCLVKDYFPEPVTVSWNSGALTSGVHTFPAVLQSSGLYSLSSVVTVPSSSLGTQTYICNVNHKPSNTKVDKKVEPKSCDKTHTCPPCPAPELLGGPSVFLFPPKPKDTLMISRTPEVTCVVVDVSHEDPEVKFNWYVDGVEVHNAKTKPREEQYASTYRVVSVLTVLHQDWLNGKEYKCKVSNKALPAPIEKTISKAKGQPREPQVCTLPPSREEMTKNQVSLSCAVKGFYPSDIAVEWESNGQPENNYKTTPPVLDSDGSFFLVSKLTVDKSRWQQGNVFSCSVMHEALHNHYTQKSLSLSPGK
light: DIQMTQSTSSLSASLGDRVTISCRASQDISNYLNWYQQKPDGTVKLLIYYTSRLHSGVPSRFSGSGSGTDYSLTISNLEQEDIATYFCQQDNTLPWTFGGGTKLEIKRTVAAPSVFIFPPSDEQLKSGTASVVCLLNNFYPREAKVQWKVDNALQSGNSQESVTEQDSKDSTYSLSSTLTLSKADYEKHKVYACEVTHQGLSSPVTKSFNRGEC
heavy 2: not shown
notes: also called 1+2 b16 format; chimeric antibody b16 (42p155z2)
As for B1, the “EC50 (read off the curve)” value is ~700 pM in test [1] and ~500 pM in test [2].

The values above are taken from patent publication US20240287208A1 (CONCEPT TO MEDICINE BIOTECH, published 2024).
